Source: PMC3528264

Target: AflJ (A. parasiticus BN9), yeast two-hybrid fusion (A. parasiticus) (UniProt O42716)
Experiment: two-hybrid

UniProt O42716, sequence (O42716 whole entry, the tested form may be a part): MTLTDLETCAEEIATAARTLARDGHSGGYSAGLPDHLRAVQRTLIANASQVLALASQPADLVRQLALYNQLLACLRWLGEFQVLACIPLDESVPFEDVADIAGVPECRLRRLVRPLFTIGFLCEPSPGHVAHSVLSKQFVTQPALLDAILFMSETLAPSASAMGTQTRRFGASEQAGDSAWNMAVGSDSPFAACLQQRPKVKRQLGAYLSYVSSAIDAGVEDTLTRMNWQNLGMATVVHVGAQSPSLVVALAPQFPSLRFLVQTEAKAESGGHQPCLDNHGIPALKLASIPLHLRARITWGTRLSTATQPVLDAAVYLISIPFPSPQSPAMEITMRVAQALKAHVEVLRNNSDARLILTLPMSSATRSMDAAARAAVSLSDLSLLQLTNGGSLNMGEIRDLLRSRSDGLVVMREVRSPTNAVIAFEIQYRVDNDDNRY

**Q.** With “AflR, Gal4 activation domain fusion (pGADT7) (from UniProt P43651 1-444) (natural protein)” as the substance, how does the colonies on QDO read?
**A.** 125 colonies
